The labels stand for the following.
T1: Ac-EQEPEPEPEQE-Am [mCATCH(-)]
T1 construct: Mutant of CATCH(-) with proline in place of the phenylalanine residues
T1 peptide: Ac-EQEPEPEPEQE-NH2

B1: Ac-QQKFKFKFKQQ-Am [CATCH(+)] (peptide)
peptide: Ac-QQKFKFKFKQQ-NH2
notes: Synthetic designed cationic variant of Q11, made by Fmoc solid-phase synthesis; also called CATCH (4+); positive peptide
B2: CATCH-U: uricase fused to a CATCH peptide, expressed in E. coli, purified via nickel affinity chromatography; probably SEQ ID NO: 9 (FIG. 59) (protein)
chain: MAEQEFEFEFEQEGSGGGSGGSGGGGSGGSGEFMSAVKAARYGKDNVRVYKVHKDEKTGVQTVYEMTVCVLLEGEIETSYTKADNSVIVATDSIKNTIYITAKQNPVTPPELFGSILGTHFIEKYNHIHAAHVNIVCHRWTRMDIDGKPHPHSFIRDSEEKRNVQVDVVEGKGIDIKSSLSGLTVLKSTNSQFWGFLRDEYTTLKETWDRILSTDVDATWQWKNFSGLQEVRSHVPKFDATWATAREVTLKTFAEDNSASVQATMYKMAEQILARQQLIETVEYSLPNKHYFEIDLSWHKGLQNTGKNAEVFAPQSDPNGLIKCTVGRSSLKSKLLEHHHHHH
B3: Ac-QQKPKPKPKQQ-Am [mCATCH(+)] (peptide)
peptide: Ac-QQKPKPKPKQQ-NH2
notes: Mutant of CATCH(+) with proline in place of the phenylalanine residues
B4: Ac-EQEFEFEFEQE-Am [CATCH(-)] (peptide)
peptide: Ac-EQEFEFEFEQE-NH2
notes: Synthetic designed anionic variant of Q11, made by Fmoc solid-phase synthesis; also called CATCH (6-); negative peptide

The nature of series [1]: Protein incorporation and retention in macroscopic hydrogels under excess PBS. It is filed as physicochemical. On the procedure:
Macroscopic Hydrogel Formation. A 12 mM stock solution of CATCH(−) was prepared by dissolving dry peptide in 1x PBS and adjusting the pH to ˜7.6 with ammonium bicarbonate (Fisher). A 12 mM stock solution of CATCH(+) was prepared by dissolving dry peptide in 1X PBS and adjusting the pH to ˜7.2 with hydrochloric acid (0.5 N Fisher). CATCH peptide stock solutions were combined at a 1:1 (v/v) ratio in a 0.2 mL glass vial (Thermo), and the vial was gently swirled for 2 min until the hydrogel formed. The hydrogel was stained with red food coloring to aid visualization. Hydrogel images were recorded using a digital still camera.
Protein Incorporation into Macroscopic Hydrogels. […] Immediately after hydrogel formation, fluorescence was visualized by placing the glass vials on a SafeImager 2.0 transilluminator (Invitrogen) and recording images with a digital still camera. […] At various time points, fluorescence in the buffer supernatant was visualized by placing the glass vials on a SafeImager 2.0 transilluminator (Invitrogen) and recording images with a digital still camera. At the end-point, buffer supernatant was carefully removed by decanting and fluorescence was visualized by placing the glass vials on a SafeImager 2.0 transilluminator (Invitrogen) and recording images with a digital still camera.

Series [2] can be described thus: Circular dichroism: concentration-dependent transition from random coil to β-sheet. It is filed as physicochemical. The conditions noted are these: equimolar mixture of CATCH peptides in 1x PBS, ellipticity at 212 nm. On the procedure:
Circular Dichroism. Circular Dichroism was performed on an AVIV 202 spectrometer. Peptides were prepared in 1x PBS at 500 μM, unless stated otherwise. Samples were run 3 times, averaged, and converted to mean residue ellipticity. All data reported was for dynode values <500 V.
(§1) Nanofiber preparation. Stock solutions of CATCH(−) and CATCH(+) were prepared by dissolving lyophilized peptides in 1x PBS to a final concentration of 500 μM. Peptide concentration was confirmed using Phe absorbance (λ=260 nm). CATCH peptides were then mixed at a 1:1 (v/v) ratio and incubated overnight for formation of nanofibers, unless stated otherwise.
In general terms: Circular dichroism is the unequal absorption of left and right circularly polarised light.

For series [3] the following is noted: literature value (ref. 7); cited from earlier work.
Series [4] addresses T1, Ac-EQEPEPEPEQE-Am [mCATCH(-)]. Nature of the series: ThT fluorimetry, equimolar mixture. As to the method: (§2) Thioflavin T (ThT) Assay. A ThT stock solution containing 0.8 mg/mL of thioflavin T (Acros) in 1x phosphate-buffered saline (PBS) (137 mM NaCl, 2.7 mM KCl, 10 mM Na₂HPO₄ and 1.8 mM KH₂PO₄, pH 7.4) was filtered through a 0.22 μm syringe filter (Millex), and further diluted 1:10 with 1x PBS to create a working solution. Peptide samples were mixed with the ThT working solution at a 1:10 (v/v) ratio, added to a black 96-well plate (Corning), and analyzed with a Molecular Devices SpectraMax M3 spectrophotometer (excitation 450, emission 482 nm). All samples were run in triplicate, with the mean and standard deviation of these samples reported.
as §1

Series [5] deals with the molecule itself. Description: ThT fluorimetry, TEM, CD and fluorescence microscopy of the peptide alone.
A short description of series [6]: Dissolution of monosodium urate (MSU) crystals in vitro. Particulars: 12.6 ug soluble CATCH-U, 0.5 mg MSU crystals, 2250 U/mL catalase, 96 hours, density at 293 nm. It is filed as biochemical. As to the method:
The enzymatic activity of CATCH-U in soluble and gel form was evaluated by measuring uric acid depletion over time via absorbance at 293 nm and 37° C. for varying concentrations of uric acid substrate. Hydrogels were left to incubate at 37° C. for 4 days with substrate removed and replenished daily to determine if the gels remain active over this timeframe. Gels were also incubated with monosodium urate (MSU) crystals.
Soluble CATCH-U activity in dissolving MSU crystals was assessed by incubating 12.6 ug soluble CATCH-U with 0.5 mg MSU crystals and 2250 U/mL catalase for 96 hours (FIG. 60). MSU crystal density was determined at 293 nm compared to a standard curve of crystals. […] Brightfield images, scale bar=[…].
The hydrogel creates a concentration gradient sufficient to dissolve crystallized uric acid in the form of monosodium urate (MSU) crystals (FIGS. 58 and 61). […] MSU crystals appear as white flakes while the background is black. The gel is the white mass on the right. […] A similar experiment was performed with lOuL hydrogels comprising 3.17 ug CATCH-U and incubated with 1 g/L MSU crystals for 24 hours (FIG. 61). […] Polarized, phase contrast images, scale bar=500 μm.

Series [7] has as its target T1, Ac-EQEPEPEPEQE-Am [mCATCH(-)]. Description: ThT fluorimetry, kinetic, equimolar mixture.
Series [8] addresses B3. Description: ThT fluorimetry, equimolar mixture. On the procedure:
as §2, §1

Regarding “CATCH(−)GFP: recombinant fusion of CATCH(−) and superfolder green fluorescent protein (GFP)”, the “Fluorescence of hydrogel after incubation under excess 1x PBS” value in series [1] (CATCH hydrogels formed in presence of the fusion protein, 48 h) is reported as “retained their fluorescence”. The “GFP in the buffer layer over the hydrogels” value in series [1] (excess 1x PBS, up to 48 h) is given as “no GFP was detected”.

As to “CATCH peptides: equimolar mixture of CATCH(+) and CATCH(−) peptides that co-assemble into β-sheet nanofibers (Ac-QQKFKFKFKQQ-NH2; not fully specified)”, the β-sheet fibrillization concentration result in series [2] is on record as “about 300 μM”.

Take “Ac-QQKFQFQFEQQ-Am (Ac-QQKFQFQFEQQ-NH2) [Q11]”: in series [3], the “Concentration at which the peptide self-assembles into β-sheet nanofibers” value is roughly 10 µM.

Turning to B1, the binding result in series [4] and in series [5] was “no binding” throughout.

Take B2: in series [6], the “MSU crystal amount over time” value was “steady and significant decrease”.

For the molecule B3, the binding result in series [7] is recorded as “no binding”.

Turning to B4, the binding result in series [8] and in series [5] was “no binding” each time.

These data come from US20230374471A1, “SELF-ASSEMBLING URICASE FUSION PEPTIDES” (University of Florida Research Foundation, Incorporated, priority 2020, published 2023).
